We go through 30 sequences from the nanobody polyreactivity screen of Harvey et al. (2022).

This data set in a line: yeast display, Sf9 membrane polyspecificity reagent, FACS + sequencing; frameworks hold sequencing errors. An outline of the steps: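 Galactose-induced (36–48 hours) yeast carrying a synthetic nanobody display library were exposed to 10% biotinylated, detergent-solubilized Sf9 membrane reagent at 4 °C for 1 hour. FACS followed streptavidin microbead enrichment, using low and high (top ~1%) gates for expression (anti-HA) and reagent binding (streptavidin). Colony PCR, MiSeq 2 × 250 sequencing and CDR-length filtering followed. Labels for polyreactivity reflect the gate of origin.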
For the sequence “QVQLVESGGGLVQAGGRLRLSCAAAGSIFSYTMGWYRQAPWKERELVAAIRRRGGSTYYADSVKGRFTISRDNAKNTVYLQMTSLKPEDTAVYYCAADGYQYRHRRFFYWGQGTQVTVSS”, the “polyreactivity (PSR sort gate)” value was “high polyreactivity”.

For the sequence “QVQLVESGGGLVQAGGRLRLSCAASASIFRLYAMGWYRQAPGKERELVAAIRWRAGSTYYADSVKGRFTLSRDNAKNTVYLQMNSLKPEETAVNYCAADAISSAWYAKYDYWGQGTQVTGSS”, the “polyreactivity (PSR sort gate)” value is on record as “high polyreactivity”.

Take “QVQLVESGGGLVQAGGRLRLSCAASGFIFRRYAIGWYRQAPGKERELVAAINRGGRTYYADSVKGRFTISRDNAKNTVYLQMNSLKPEDTAVYYCAVGSVSSDDWGQGTQVTVSS”: the “polyreactivity (PSR sort gate)” value is “high polyreactivity”.

In the case of “QVQLVESGGGLVQAGGRLRLSCAASGFIFSYYAMGWYRQAPGKERELVAAINYSGGRTYYADSVKGRFTISRDNAKNTVYLQMNSLKPEDTAVYYCNAVTFGRRAFDYWGQGTQVTVSS”, the “polyreactivity (PSR sort gate)” value is recorded as “high polyreactivity”.

Consider “QVQLVESGGGLVQAGGRLRLSCAASGFIFYYYAMGWYRQAPGKERELVAVLTESASSTYYADSVKGRFTISRDNAKNTVYLQMNSLKPEDTAVYYCNADFWPYTGKYDYWGQGTQVTVSS”, for which the “polyreactivity (PSR sort gate)” value is on record as “low polyreactivity”.

For “QVQLVESGGGLVQAGGRLRLSCAASGFTFGWNAMGWYRQAPGKEREMVASIYSGDSTYYADSVKGRFTISRDNAKNTVYLQMNSLKPEDTAVYYCATAPYVTSRRYGPYEYWGQGTQVTVSS”, the “polyreactivity (PSR sort gate)” value is listed as “low polyreactivity”.

“QVQLVESGGGLVQAGGRLRLSCAASGFTFNVNALGGYRPAPGKERELVATITWSDGSTRYADSVKGRFTISRDNAKNTVYLQMNSLKPEDTAVYYCATRWSYPYSYRYYYWGQGTQVTVSS”: the “polyreactivity (PSR sort gate)” value is “low polyreactivity”.

As for “QVQLVESGGGLVQAGGRLRLSCAASGFTFTRYAMGWYRQAPGKERELVAAISWSGGSTYYADSVKGRFTISRDNAKNTVYLQMNSLKPEDTAVYYCAKRGTVRQGGYGYWGQGTQVTVSS”, the “polyreactivity (PSR sort gate)” value is “high polyreactivity”.

Turning to “QVQLVESGGGLVQAGGRLRLSCAASGFTFYRYAMGWYRQAPGKVRQLVATISASGGSTYYADSVKGRFTISRDNAKNTVYLQMNSLKPEDTAVYYCAVRYKSWYGFNYWGQGTQVTVSS”, the “polyreactivity (PSR sort gate)” value is reported as “high polyreactivity”.

On to “QVQLVESGGGLVQAGGRLRLSCAASGFTLTRNAMGWYRQAPGKERELVAAISWSGGTTYYADSVKGRFTISRDNAKNTVYLQMNSLKPEDTAVYYCNTASLRAHYYYWGQGTQVTVSS”, for which the “polyreactivity (PSR sort gate)” value is on record as “high polyreactivity”.

Regarding “QVQLVESGGGLVQAGGRLRLSCAASGFTQGSYAMGWHRQAPGKEREFVAGITDSGGSTYYADSVKGRYTISRDNAKNTVYLQMNSLKPEDTAVYDCNADFAPWDKQDYPYDYDYWGQGTQVTVSS”, the “polyreactivity (PSR sort gate)” value was “low polyreactivity”.

Take “QVQLVESGGGLVQAGGRLRLSCAASGITFKRYAMGWYRQAPRKERELVAAISDIGGRTYYADSVKGRFSISRDNAKNTVYLQMYSLKPEDTAVYYCAADYYSPVDWYYYWGQGTQVTVSS”: the “polyreactivity (PSR sort gate)” value is “high polyreactivity”.

As for “QVQLVESGGGLVQAGGRLRLSCAASGITFWTYAMGWYRQAPGKERELVARISKSGARTFYADSVKGRFTISRDNAKNTVYLQMNSLKPEDTAVYYCAADRGPRPVTWYDYWGQGTQVTVSS”, the “polyreactivity (PSR sort gate)” value is “high polyreactivity”.

“QVQLVESGGGLVQAGGRLRLSCAASGITSDVYAMGWYRQAPGKERELVAAISSAGSTYYADSVKGRFTISRDNAKNTVYLQMNSLKPEDTAVYYCDAAGYPQTYLYYYWGQGTQVTVSS”: the “polyreactivity (PSR sort gate)” value is listed as “low polyreactivity”.

Consider “QVQLVESGGGLVQAGGRLRLSCAASGLTFYRNAMGWYRQAPGKERELVAAITTSGARTYYADSVKGRFTISRDNAKNTVYLRMNSLKPDVTAVYYCNAPVRRDVAYGYWGQGTQVTVSS”, for which the “polyreactivity (PSR sort gate)” value was “high polyreactivity”.

Turning to “QVQLVESGGGLVQAGGRLRLSCAASGLTLRWYAMGWYRQAPGKERELVAVISGSGSTNYADSVKGRFTISRDNAKNTVYLQMNSLKPEDTAVYYCAAQSHLGTPQRFGYWGQGTQVTVSS”, the “polyreactivity (PSR sort gate)” value is recorded as “low polyreactivity”.

Consider “QVQLVESGGGLVQAGGRLRLSCAASGNTFGINAMGWYRQAPGKEREFVAAITFGGGRTYYADSVKGRFTISRDNAKNTVYFQMNSLKPEDTAVYFCAARAPVVTYTWSSPRWWFDYWGQGTQVTVSS”, for which the “polyreactivity (PSR sort gate)” value was “high polyreactivity”.

On to “QVQLVESGGGLVQAGGRLRLSCAASGRIFKRYAMGWYRQAPGKESELVAAISWRGGSTYYADSVKGRFTISRDNAKNTVYFQMNSLKPEDTAVYYCAAGYFSYRRYDYWGQGTQVTVSS”, for which the “polyreactivity (PSR sort gate)” value is listed as “high polyreactivity”.

Regarding “QVQLVESGGGLVQAGGRLRLSCAASGRIFSYAMGWYRHAPGNERELVGGISRSGGSTYYADSVKGRFTISRDNAKNTVYLQMNSQKPVDTAVYYCAADSSLSASEYDSWGQGTQVTVSS”, the “polyreactivity (PSR sort gate)” value is “high polyreactivity”.

As to “QVQLVESGGGLVQAGGRLRLSCAASGRIFVQYVMGWYRQAPGKERELVAAITGSDSTTYYADSVKGRFTISRDNAKNTVYLQMNSLKPEDTAVYYCNKDLWLQDDYWGQGTQVTVSS”, the “polyreactivity (PSR sort gate)” value was “low polyreactivity”.

Take “QVQLVESGGGLVQAGGRLRLSCAASGRIFWSNTMGWYRQAPGKERELVAAISGRGGSTYYPDSVKGRFTISRDNAKNTVYLQMNSLKPEDTAVYYCAAKPTRSRKIYEYWGQGTQVTVSS”: the “polyreactivity (PSR sort gate)” value is reported as “low polyreactivity”.

“QVQLVESGGGLVQAGGRLRLSCAASGRIFYPYDMGWYRQEPGKERELVAAISRSDGITYYADSVKGRFTISRDNAKNTVYLQMKSLKPEDTPVYYCAADDPSGHYPDFEYWGQGTQVTVSS”: the “polyreactivity (PSR sort gate)” value was “low polyreactivity”.

In the case of “QVQLVESGGGLVQAGGRLRLSCAASGRILYVYLMGWYRQAPGKERELGAAISRRGGGTYYADSVKGRFTISRDNAKNTVYLQMNSLKPEDTAVYYCATDQYYEYDYWGQGTQVTVSS”, the “polyreactivity (PSR sort gate)” value is on record as “low polyreactivity”.

“QVQLVESGGGLVQAGGRLRLSCAASGRTFDDYAMGWYRQAPGKERELVAVITSGGRTKYADSVKGRFTISRDNAKNTVYLQMNSLKPEDTAVYYCAAREVHDRYGYWGQGTQVTVSS”: the “polyreactivity (PSR sort gate)” value is on record as “high polyreactivity”.

On to “QVQLVESGGGLVQAGGRLRLSCAASGRTFFGYAMGWYRQAPGKERELVAAITSSGGRTYYADSVKGRFTISRDNAKNTVYLQMNSLKPEDTAVYYCNTVLSFRSVNIYRGRGDYWGQGTQVTVSS”, for which the “polyreactivity (PSR sort gate)” value was “high polyreactivity”.

“QVQLVESGGGLVQAGGRLRLSCAASGRTFGINAMGWYRQEPGKERELVASISSGGRTNYADSVKGRFTISRHNAKNTVYLQMNSLKPEDTAVYYCARSRLGRAYGRYDYWGQGTQVTVSS”: the “polyreactivity (PSR sort gate)” value is “low polyreactivity”.

Consider “QVQLVESGGGLVQAGGRLRLSCAASGRTFGQNAMGWYRQAPGKERELVAVISSRGGSTYYADSVKGRFTISRDNAKNTVYLQMNSLKPEDTAVYYCAKARRKPGAVDYWGQGTQVTVSS”, for which the “polyreactivity (PSR sort gate)” value is recorded as “high polyreactivity”.

On to “QVQLVESGGGLVQAGGRLRLSCAASGRTFLVNAMGWYRQAPGKERELVAAISQRGGSTDYADSVKGRFTISRDNAKNTVYLQMNSLKPEDTAVYYCAVRWGYLYDYWGQVTQVTVSS”, for which the “polyreactivity (PSR sort gate)” value is given as “low polyreactivity”.

For the sequence “QVQLVESGGGLVQAGGRLRLSCAASGRTFRGNVMGWYRQAPGKEREFVAAITKSDGSTYYADSVKGRFTISRDNAKNTVYLQMNSLKPEDTAVYYCAARTGRTGWPWFRYDYWGQGTQVTVSS”, the “polyreactivity (PSR sort gate)” value is “low polyreactivity”.

For the sequence “QVQLVESGGGLVQAGGRLRLSCAASGRTFRWYAMGRYRQAPGKERELVADISSVGSTDYADSVKGRFTISRDNAKNTVYLQMNSLKPEDTAVYFCAADFSPRRYHNLSFGYWGQGTQVTVSS”, the “polyreactivity (PSR sort gate)” value is on record as “low polyreactivity”.
